Experimental data: the RNAGym collection of RNA variant scans (doi:10.1073/pnas.2313332121)

B1: TPR t1 (parent)
chain: GACCAAUCUGCCCUCAGAGCUCGAGAACAUCUUCGGAUGCAGAGGAGGCAGGCUUCGGUGGCGCGAUAGCGCCAACGUCCUCAACCUCCAAUGCAUCCCACCACAUGAUGAUGCCUGAAGAGCCUUGGUUUUUUG

Variants of: B1
Experiment: polymerase ribozyme fitness, log enrichment relative to wild type (log ratio); higher = more active; in vitro selection for triplet polymerase activity
Outline: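 Fitness compares each genotype's enrichment to that of the wild type on a logarithmic scale, averaging replicates with inverse-variance weights. The logarithm is base 2. Enrichment came from Illumina sequencing of input and output libraries after one triplicate round of in vitro selection, which included frozen incubation at −7 °C, of PCR-built, transcribed mutant libraries of each subunit of a heterodimeric triplet polymerase ribozyme. Only genotypes with ≥10 input reads and ≥1 read per output were kept.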

Variant	polymerase ribozyme fitness (log ratio)
GACCAAUCUGCCCUCAGAGCUCGAGAACAUCUUCGGAUGCAGAGGAGGCAGGAUUCGAUGGCGCGAUAGCGCCAACGUCCUCAACCUCGAAUGCAUCCCACUUCAUGAUGAUGCCUGAAGAGGCUUGGUUUUUUG [C53A G58A C89G C102U A103U C123G]	-5.91
GACCAAUCUGCCCUCAGAGCUCGAGAACAUCUUCGGAUGCAGAGGAGGCAGGAUUGGGUGGCGCGAUAGCCCCAACGUCCUCAACCUCCAAUGCAUCCCACCACAUGAUGAUGCCUGAAGAGCCUUCGUUUUUUG [C53A C56G G71C G127C]	-1.96
GACCAAUCUGCCCUCAGAGCUCGAGAACAUCUUCGGAUGCAGAGGAGGCAGGAUUCGGUGGCGCGAUAGCGUCAACGUCCUCAACUUCCAAUGCAUCCCACCACAUGAUCAUGCCUGAAGAGCCUUGGUUUUUUG [C53A C72U C86U G110C]	-3.78
GACCAAUCUGCCCUCAGAGCUCGAGAACAUCUUCGGAUGCAGAGGAGGCAGGAUUCGGUGGAGCGAUAGCGCCAACCUCCUCAACCUCCAAUGCAUCCCACCACAUGAUGAUGCCUGAAGAGCCUUGGUUUUUUG [C53A C62A G77C]	-0.326
GACCAAUCUGCCCUCAGAGCUCGAGAACAUCUUCGGAUGCAGAGGAGGCAGGAUUGGGUGGCGCGAUAGUGCCAACGUCCUCAACCUCCAAUGCAUCCCACCACAUGAUGAUGCCUGAAGAGCCUUGGUUUAUUG [C53A C56G C70U U132A]	-0.0503
GACCAAUCUGCCCUCAGAGCUCGAGAACAUCUUCGGAUGCAGAGGAGGCAGGAUUCGGUGGCGCGAUAGCGCCAACGUCCUCAACCUCCAAUGUAUCCCACCAUAUGAUGACGCCUGAAGAGCCUUGGUUUUUUG [C53A C94U C104U U112C]	1.78
GACCAAUCUGCCCUCAGAGCUCGAGAACAUCUUCGGAUGCAGAGGAGGCAGGAUUCGGUGGCGCGAUAGCGCCAACGUCCUCAACCUCCUAUGCAUCCCACCACAUGAUGAUGCCUCAAGAGCCUUGGUUUUUUG [C53A A90U G117C]	-4.59
GACCAAUCUGCCCUCAGAGCUCGAGAACAUCUUCGGAUGCAGAGGAGGCAGUCUUCGGCGGCGCGAUAGCGCCAACGUCCUCAACCUCCAAUGCAUCCCACCACAUGAUGAUGCCUGAAGAGCCUUGGUUUUUUG [G52U U59C]	-0.547
GACCAAUCUGCCCUCAGAGCUCGAGAACAUCUUCGGAUGCAGAGGAGGCAGGAUUCGGUGGCGCGAUAGCGCCUACGUCCUCAACCUCCAAUGCCUCCCACCACAUGAUGAUGCCUGAAAAGCCUUGGUUUUUUG [C53A A74U A95C G120A]	-0.291
GACCAAUCUGCCCUCAGAGCUCGAGAACAUCUUCGGAUGCAGAGGAGGCAGGAUUCGGUGGCGCGAUAGCGCCAACGUCCUCAACCUACAAUGCAUCCCACCACAUGAUGAUGCCUGAAGAGCCUUGGUUUUUUG [C53A C88A]	-0.22
GACCAAUCUGCCCUCAGAGCUCGAGAACAUCUUCGGAUGCAGAGGAGGCAGGAUUCGGUGGCGCGAUAGCGCAAACGGCCUCAACCUCCAAUGCAUCCCACCACAUGAUUAUGCCUGAAGAGCCUUGGUUUUUUG [C53A C73A U78G G110U]	-0.702
GACCAAUCUGCCCUCAGAGCUCGAGAACAUCUUCGGAUGCAGAGGAGGCAGGAUUCGGUGGCGCGUUAGCGUCAACGUCCUCAACCUCCAAUGCAUCCCACCACAUGAUGAUGCCUGAAGAGUCUUGGUUUUUUG [C53A A66U C72U C123U]	0.234
GACCAAUCUGCCCUCAGAGCUCGAGAACAUCUUCGGAUGCAGAGGAGGCAGGAUUCGGUAGCGCGAUAGCGUCAACGUCCUCAACCUCCAAUGCAUCCCUCCACAUGAUGAUGCCUGAACAGGCUUGGUUUUUUG [C53A G60A C72U A100U G120C C123G]	-0.938
GACCAAUCUGCCCUCAGAGCUCGAGAACAUCUUCGGAUGCAGAGGAGGCAGGAUUGGGUGGUGCGAUAGCGCCAACGUCCUCAACCUCAAAUGCAUCCCACCACAUGAUGAUGCCUGAACAGCCUUGGUUUUUGG [C53A C56G C62U C89A G120C U134G]	-0.681
GACCAAUCUGCCCUCAGAGCUCGAGAACAUCUUCGGAUGCAGAGGAGGCAGGAUUCGGUGGCGCGAUAGCGCCAACGUCCUCAACAUCCAAUGCAUCCCACCACAUGAUGAUGCCUGAAGAGCAUUGGUUUUUUG [C53A C86A C124A]	1.52
GACCAAUCUGCCCUCAGAGCUCGAGAACAUCUUCGGAUGCAGAGGAGGCAGUCAUCGGUGGCACGAUAGCGCCAACGUCCUCAACCUCCAAUGCAUCCCACCACAUGAUGAUGCAUGAAGAGCCUUGGUUUUUUG [G52U U54A G63A C115A]	-0.839
GACCAAUCUGCCCUCAGAGCUCGAGAACAUCUUCGGAUGCAGAGGAGGCAGGAUUCGGUGGCGCGAUAGCGCCAACGUCCUCAACUUCCAAUGCAUCCCACCACAUGAUGAUGCCUGAAGAGCCUUGGUUUUUUG [C53A C86U]	-0.0407
GACCAAUCUGCCCUCAGAGCUCGAGAACAUCUUCGGAUGCAGAGGAGGCAGGAUUCGGUAGCGCGAUACCGCCAACGUCCUCAACCUCCAAUGCAUCCCACCACAUGAUGAUGCCUGAAGAGCCUUGGUUUUUUG [C53A G60A G69C]	-3.47
GACCAAUCUGCCCUCAGAGCUCGAGAACAUCUUCGGAUGCAGAGGAGGCAGUCUUCGGAGGCGCGAUAGCGCCAACGUCCUCAACCUCCAAUGCAUCCCACCACAUGAUGAUCCCUGAGGAGCCUUGGUUUUUUG [G52U U59A G113C A119G]	-1.67
GACCAAUCUGCCCUCAGAGCUCGAGAACAUCUUCGGAUGCAGAGGAGGCAGGAUUCGGUGGCGCGAUAGCGUCAACGUCCUCAACCUCCAAUGCAUCCCACCAUAUGAUGAUCCCUGAAGAGCCUUGGUUUUUUG [C53A C72U C104U G113C]	-2.1
GACCAAUCUGCCCUCAGAGCUCGAGAACAUCUUCGGAUGCAGAGGAGGCAGUCUUCGGUGGCGCGAUACCGCCAACGUCCUCAACCUCCAAUGCAUCCCACCACAUGAUGAUGCCUGAAGAGCCUUGGUUUUUUG [G52U G69C]	-1.54

Variant	polymerase ribozyme fitness (log ratio)
GACCAAUCUGCCCUCAGAGCUCGAGAACAUCUUCGGAUGCAGAGGAGGCAGGAUUCGGUGGCGCGAUAGCGCCAACGUCCUCGACCUCCAAUGCAUCCCACCACCUGAUGAUGCCUGAAGAGCCUUGGUUUUUUG [C53A A83G A105C]	-3.47
GACCAAUCUGCCCUCAGAGCUCGAGAACAUCUUCGGAUGCAGAGGAGGCAGGAUUCGGUGGCGCGAUAGCGCCAACGUCCUCAAACUCCAAUGCAUCCCACCACAUGAUGAUGCCUGAAGAGCCUUGGUUUUUUU [C53A C85A G135U]	-2.53
GACCAAUCUGCCCUCAGAGCUCGAGAACAUCUUCGGAUGCAGAGGAGGCAGGAUUCGGUGGCGCGAUAGCGCCAACGUCCUCAACCUUCAAUGCAUCCCAACACAUGAUGAUGCCUGAAGAGCCUUGGUUUUUUG [C53A C88U C101A]	0.356
GACCAAUCUGCCCUCAGAGCUCGAGAACAUCUUCGGAUGCAGAGGAGGCAGGAUUCGGUAGCGCGAUAGCGCCAACGUCCUCAACCUCCAAUGCAUCCCACCACAUGAUGAUGCCUGAAGUGCCUUGGUUUUUUG [C53A G60A A121U]	1.33
GACCAAUCUGCCCUCAGAGCUCGAGAACAUCUUCGGAUGCAGAGGAGGCAGGAUUCGGUGGCGCGAUAGCGCCAACGUCCUCAACCUCCAAUGCAUCCCACCACAUGAUGAUGCUUGAUGAGCCUUGGUUUUUUG [C53A C115U A119U]	0.429
GACCAAUCUGCCCUCAGAGCUCGAGAACAUCUUCGGAUGCAGAGGAGGCAGUCUUCGGUGGCGCGAUAUCGCCAACGUCCUCAACCUCCACUGCAUCCCACCAAAUGAUGAUGCCUGAAGAGCCUUGGUUUUUUG [G52U G69U A91C C104A]	-2.27
GACCAAUCUGCCCUCAGAGCUCGAGAACAUCUUCGGAUGCAGAGGAGGCAGGAUUCGGUGGCGCGAUAGCGCCAAAGUCCUCAACCUACAAAGCAUCCCACCACAUGAUGAUGCCUGAAGAGCCUUGGUUUUUUG [C53A C76A C88A U92A]	-5.92
GACCAAUCUGCCCUCAGAGCUCGAGAACAUCUUCGGAUGCAGAGGAGGCAGGAUUCGGUGGCGCGAUAGCGUCAACGUCCUCAACCUCCAAUGCAUCUCACCACAUGAUGAUGCCUGAAGAGUCUUGGUUUUUUG [C53A C72U C98U C123U]	-3.81
GACCAAUCUGCCCUCAGAGCUCGAGAACAUCUUCGGAUGCAGAGGAGGCAGGAUUCGGUGGCGCGAUAGCGCCAACGUCCUCAAACUCCAAUGCAUCCCACCACAUGAUGAUGCCUAAAGAGCCGUGGUUUUUUG [C53A C85A G117A U125G]	-3.17
GACCAAUCUGCCCUCAGAGCUCGAGAACAUCUUCGGAUGCAGAGGAGGCAGGAUUAGGUGGCGCGAUAGCGCCAACGUCCUCAGCCUCCAAUGCAUCCCACCACACGAUGAUACCUGAAGAGCCUUGGUUUUUUG [C53A C56A A84G U106C G113A]	-2.51
GACCAAUCUGCCCUCAGAGCUCGAGAACAUCUUCGGAUGCAGAGGAGGCAGGAUUCGGUGGCGCGAUAGUGCCAACGUCCUCAACCUCCAAUGCAUCCCACCACAUGAUGAUGCCUGAAGAGCCUUGGUUUUUUG [C53A C70U]	0.0165
GACCAAUCUGCCCUCAGAGCUCGAGAACAUCUUCGGAUGCAGAGGAGGCAGGAUUCGGUGGCGCGAUAGCGCCAACGUCCUCAACCUCCAAUGCAUCCCACCUCAUGAUGAUGCCUGAAGAGCCUUGGUUUUUUG [C53A A103U]	-4.67
GACCAAUCUGCCCUCAGAGCUCGAGAACAUCUUCGGAUGCAGAGGAGGCAGUCUUCGGUGGCGCGAUAGCGCCAACGUCCUCAACCUCCAAUCCAUCCCACCACAUGAUGAUGCCUGAAAAGCCUUGGUUUUUUC [G52U G93C G120A G135C]	-1.15
GACCAAUCUGCCCUCAGAGCUCGAGAACAUCUUCGGAUGCAGAGGAGGCAGUCUUCGGUGGCGCGAUAGCGCCAACGUCCUCAACCUCCAAUGCAUCCCACCACAUGAUGAUGCCUGAAGAGCCUUGGUUUUGUG [G52U U133G]	-1.42
GACCAAUCUGCCCUCAGAGCUCGAGAACAUCUUCGGAUGCAGAGGAGGCAGGAUUCGGUGGCGCGAUUGCGCCAACGUCCUCAACCUCCAAUGCAUCCCACCACAUGAUGAUGCCUGAAGAGCCUUGGUUUUUUG [C53A A68U]	-6.8
GACCAAUCUGCCCUCAGAGCUCGAGAACAUCUUCGGAUGCAGAGGAGGCAGGAUUCGGUGGCGCGAUAGCGUCAACGUCCUCAACGUCCAAUGCAUCCCACCACAUGAUGAUGCUUGAAGAGCCUUGGUUUUUUG [C53A C72U C86G C115U]	-1.64
GACCAAUCUGCCCUCAGAGCUCGAGAACAUCUUCGGAUGCAGAGGAGGCAGGAUUCGGUGGCGCGAUAGCGCCAACGUCCUCAACCUCCAAUGCAUCCAACCACAUGAUGAUGCCUCGAGAGCCUUGGUUUUUUG [C53A C99A G117C A118G]	-7.29
GACCAAUCUGCCCUCAGAGCUCGAGAACAUCUUCGGAUGCAGAGGAGGCAGGAUUCGGUGGCGCGAUAGCGCCAACGUCCUCAACCUCCAAUGCAUCACACGACAUGAUGACGCCUGAAGAGCCUUGGUUUUUUG [C53A C98A C102G U112C]	-7.27
GACCAAUCUGCCCUCAGAGCUCGAGAACAUCUUCGGAUGCAGAGGAGGCAGGAUUCGGUGGCGCGAUAGCGCCAACGUACUCAACCUCCAAUGCAUCCCACCACAUGAUGAUGCCUGAAGAGCCUUGAUUUUUUG [C53A C79A G128A]	-3.36
GACCAAUCUGCCCUCAGAGCUCGAGAACAUCUUCGGAUGCAGAGGAGGCAGGAUUCGGUGGCGCGGUAGCGCCAACGUCCUCAACCUCCAAUGCAUCCCACCACAUGAUGAUGCCUGAAGAGUCUUGGUUUUUUG [C53A A66G C123U]	0.367
GACCAAUCUGCCCUCAGAGCUCGAGAACAUCUUCGGAUGCAGAGGAGGCAGGAUUCGGUGGCGCGAUAGCGCCAACGUCCUCAACCUUCAAUGCAUCCCAUCACAUGAUGAUGCCUGAAGAGUCUUGGUUUUUUG [C53A C88U C101U C123U]	0.64
